B1: Cytochrome c-552 wild type, P15452 (protein)
chain: MKKFLLVAVVGLAGITFANEQLAKQKGCMACHDLKAKKVGPAYADVAKKYAGRKDAVDYLAGKIKKGGSGVWGSVPMPPQNVTDAEAKQLAQWILSIK
B2: Cytochrome c-551 wild type, P00099 (protein)
chain: MKPYALLSLLATGTLLAQGAWAEDPEVLFKNKGCVACHAIDTKMVGPAYKDVAAKFAGQAGAEAELAQRIKNGSQGVWGPIPMPPNAVSDDEAQTLAKWVLSQK

Conditions: pH 5, DSC, Unknown, reversible: yes, whole UniProt chain shown; for denaturant midpoint (higher = more stable): 25 °C, GdnHCl; for Tm / heat capacity change of unfolding / unfolding enthalpy (calorimetric): Thermal
[1] = Hydrogenobacter thermophilus (strain DSM 6534 / IAM 12695 / TK-6)
[2] = Pseudomonas aeruginosa (strain ATCC 15692 / DSM 22644 / CIP 104116 / JCM 14847 / LMG 12228 / 1C / PRS 101 / PAO1)
[3] = Pseudomonas aeruginosa (strain ATCC 15692 / DSM 22644 / CIP 104116 / JCM 14847 / LMG 12228 / 1C / PRS 101 / PAO1), 47.3 °C

Protein	denaturant midpoint (higher = more stable) [1]	Tm [1]	heat capacity change of unfolding [1]	unfolding enthalpy (calorimetric) [1]	denaturant midpoint (higher = more stable) [2]	Tm [3]	heat capacity change of unfolding [3]	Tm [2]	heat capacity change of unfolding [2]	unfolding enthalpy (calorimetric) [2]
B1	4.47 M	87.5 °C	0.9 kcal/mol/K	36.7 kcal/mol	–	–	–	–	–	–
B2	–	–	–	–	2.16 M	47.3 °C	1.07 kcal/mol/K	47.3 °C	0.72 kcal/mol/K	37.7 kcal/mol
